In patent publication US8178324B2, “Deracemisation of amines” (Ingenza Limited, priority 2002, dated 2012) one finds Km and kcat data, which are given here for one substance.

The data set relates to CCCCCN. The data set can be described thus: Colorimetric hydrogen peroxide amine oxidase assay, purified mutant enzyme (N336S). The note with it: other: purified N336S mutant; 30.0 °C. The data set is classed as biochemical, Aspergillus niger. The method, then:
The wild-type enzyme was also purified by the same protocol and the two enzymes compared for substrate specificity and enantioselectivity.
The mutated gene was also sequenced and the sequence is shown in SEQ ID NO: 2. There was a single amino acid change from the wild-type enzyme with serine replacing asparagine at position 336.
LB medium (6×300 ml) containing ampicillin (100 μg·ml^−1) in 1 L baffled flasks was inoculated with a single colony of monoamine oxidase mutant from an LB agar plate. Cultures were incubated at 30° C. for 22 hours (OD600˜3.6) then harvested and washed with phosphate buffer (50 mM, pH 8) to yield a yellow-brown pellet (11.2 g).
The pellet was resuspended in Tris/HCl buffer (25 mM, pH 7.8, 30 ml) and sonicated on ice (30 s on, 30 s off for 10 minutes). The suspension was then centrifuged (20,000 rpm, 4° C.) until clear supernatant was obtained and the supernatant dialysed against Tris/HCl buffer (25 mM, pH 7.8). […]
The spectrophotometer was blanked against assay mixture and HRP. Enzyme was added and the absorbance at 500 nm measured at 3 s intervals for a 10 minute period.
The Km values were calculated using ‘KaleidaGraph for Windows’ (Synergy Software). For calculation of the kcat, the active enzyme concentration was determined by estimating the FAD content from the absorbance at 458 nm using an extinction coefficient of 11 mM^−1 cm^−1 (see ref 12).

Take “mutant A. niger monoamine oxidase (N336S) (Aspergillus niger; A300V/K348M/L304V/N336S/R450G)”: the Km (commonly the concentration of substrate that gives half-maximal velocity) stood at 400 µM and the kcat (commonly the maximal rate divided by the concentration of active sites) was found to be 1.93 s⁻¹.
